The target in the test is human corticotropin-releasing factor 2α (CRF2 α receptor) (human), Q13324. In words: cell-based or functional assay.

Starred links: 1 amine or outer side, 2 acyl side, 3 side chain; linkers in the order of their positions; H or OH if unused. Non-standard residues stand in square brackets, D forms with d. Groups on a side chain read outwards from the residue. No end group written: not given here. *: point of attachment. C18 diacid = O=C(O)CCCCCCCCCCCCCCCCC(=O)*; γGlu = O=C(O)[C@H](CCC(=O)[*:2])N[*:1]; AEEA = NCCOCCOCC(=O)O; Aib = CC(C)(N)C(=O)O

The source of these data is patent US12679878B2, “CRF2 receptor agonists and their use in therapy” (SANOFI, priority 2020, dated 2026).

Sequence of human corticotropin-releasing factor 2α (CRF2 α receptor) (human), Q13324 (Q13324 20-411): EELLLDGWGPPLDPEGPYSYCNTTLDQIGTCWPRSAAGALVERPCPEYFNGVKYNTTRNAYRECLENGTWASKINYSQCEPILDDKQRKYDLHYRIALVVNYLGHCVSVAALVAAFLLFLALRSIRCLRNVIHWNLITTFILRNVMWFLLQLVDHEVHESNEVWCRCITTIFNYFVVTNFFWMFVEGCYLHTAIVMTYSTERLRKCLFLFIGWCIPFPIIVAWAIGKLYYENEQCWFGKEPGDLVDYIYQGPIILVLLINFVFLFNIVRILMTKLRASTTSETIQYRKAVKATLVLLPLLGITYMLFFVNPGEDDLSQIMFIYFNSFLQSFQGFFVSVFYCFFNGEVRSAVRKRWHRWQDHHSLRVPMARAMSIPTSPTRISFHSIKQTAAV

B1: SEQ ID NO: 92 (peptide)
peptide: IVLSLDVPIKLK([AEEA-AEEA-γGlu-C18 diacid])QKLLEQERQKKQREQAETN[Aib]QILAQV-NH2
modifications: N-terminus assumed
SMILES: CC[C@H](C)[C@H](N)C(=O)N[C@H](C(=O)N[C@@H](CC(C)C)C(=O)N[C@@H](CO)C(=O)N[C@@H](CC(C)C)C(=O)N[C@@H](CC(=O)O)C(=O)N[C@H](C(=O)N1CCC[C@H]1C(=O)N[C@H](C(=O)N[C@@H](CCCCN)C(=O)N[C@@H](CC(C)C)C(=O)N[C@@H](CCCCNC(=O)COCCOCCNC(=O)COCCOCCNC(=O)CC[C@H](NC(=O)CCCCCCCCCCCCCCCCC(=O)O)C(=O)O)C(=O)N[C@@H](CCC(N)=O)C(=O)N[C@@H](CCCCN)C(=O)N[C@@H](CC(C)C)C(=O)N[C@@H](CC(C)C)C(=O)N[C@@H](CCC(=O)O)C(=O)N[C@@H](CCC(N)=O)C(=O)N[C@@H](CCC(=O)O)C(=O)N[C@@H](CCCNC(=N)N)C(=O)N[C@@H](CCC(N)=O)C(=O)N[C@@H](CCCCN)C(=O)N[C@@H](CCCCN)C(=O)N[C@@H](CCC(N)=O)C(=O)N[C@@H](CCCNC(=N)N)C(=O)N[C@@H](CCC(=O)O)C(=O)N[C@@H](CCC(N)=O)C(=O)N[C@@H](C)C(=O)N[C@@H](CCC(=O)O)C(=O)N[C@H](C(=O)N[C@@H](CC(N)=O)C(=O)NC(C)(C)C(=O)N[C@@H](CCC(N)=O)C(=O)N[C@H](C(=O)N[C@@H](CC(C)C)C(=O)N[C@@H](C)C(=O)N[C@@H](CCC(N)=O)C(=O)N[C@H](C(N)=O)C(C)C)[C@@H](C)CC)[C@@H](C)O)[C@@H](C)CC)C(C)C)C(C)C
B1 showed an EC50 [nM], 0% HSA of 9.17 nM.

B2: SEQ ID NO: 90 (peptide)
peptide: IVLSLDVPIKLK([AEEA-AEEA-γGlu-C18 diacid])QILLKQERQKKQREKAKTNVQILAQV-NH2
modifications: N-terminus assumed
SMILES: CC[C@H](C)[C@H](N)C(=O)N[C@H](C(=O)N[C@@H](CC(C)C)C(=O)N[C@@H](CO)C(=O)N[C@@H](CC(C)C)C(=O)N[C@@H](CC(=O)O)C(=O)N[C@H](C(=O)N1CCC[C@H]1C(=O)N[C@H](C(=O)N[C@@H](CCCCN)C(=O)N[C@@H](CC(C)C)C(=O)N[C@@H](CCCCNC(=O)COCCOCCNC(=O)COCCOCCNC(=O)CC[C@H](NC(=O)CCCCCCCCCCCCCCCCC(=O)O)C(=O)O)C(=O)N[C@@H](CCC(N)=O)C(=O)N[C@H](C(=O)N[C@@H](CC(C)C)C(=O)N[C@@H](CC(C)C)C(=O)N[C@@H](CCCCN)C(=O)N[C@@H](CCC(N)=O)C(=O)N[C@@H](CCC(=O)O)C(=O)N[C@@H](CCCNC(=N)N)C(=O)N[C@@H](CCC(N)=O)C(=O)N[C@@H](CCCCN)C(=O)N[C@@H](CCCCN)C(=O)N[C@@H](CCC(N)=O)C(=O)N[C@@H](CCCNC(=N)N)C(=O)N[C@@H](CCC(=O)O)C(=O)N[C@@H](CCCCN)C(=O)N[C@@H](C)C(=O)N[C@@H](CCCCN)C(=O)N[C@H](C(=O)N[C@@H](CC(N)=O)C(=O)N[C@H](C(=O)N[C@@H](CCC(N)=O)C(=O)N[C@H](C(=O)N[C@@H](CC(C)C)C(=O)N[C@@H](C)C(=O)N[C@@H](CCC(N)=O)C(=O)N[C@H](C(N)=O)C(C)C)[C@@H](C)CC)C(C)C)[C@@H](C)O)[C@@H](C)CC)[C@@H](C)CC)C(C)C)C(C)C
B2: the EC50 [nM], 0% HSA is 3.91 nM and the EC50 [nM], 0.1% HSA came out at 92.6 nM.

B3: SEQ ID NO: 88 (peptide)
peptide: IVLSLDVPIKLK([AEEA-AEEA-γGlu-C18 diacid])QILLKQERQKKQREKAKTN[Aib]QILAQV-NH2
modifications: N-terminus assumed
SMILES: CC[C@H](C)[C@H](N)C(=O)N[C@H](C(=O)N[C@@H](CC(C)C)C(=O)N[C@@H](CO)C(=O)N[C@@H](CC(C)C)C(=O)N[C@@H](CC(=O)O)C(=O)N[C@H](C(=O)N1CCC[C@H]1C(=O)N[C@H](C(=O)N[C@@H](CCCCN)C(=O)N[C@@H](CC(C)C)C(=O)N[C@@H](CCCCNC(=O)COCCOCCNC(=O)COCCOCCNC(=O)CC[C@H](NC(=O)CCCCCCCCCCCCCCCCC(=O)O)C(=O)O)C(=O)N[C@@H](CCC(N)=O)C(=O)N[C@H](C(=O)N[C@@H](CC(C)C)C(=O)N[C@@H](CC(C)C)C(=O)N[C@@H](CCCCN)C(=O)N[C@@H](CCC(N)=O)C(=O)N[C@@H](CCC(=O)O)C(=O)N[C@@H](CCCNC(=N)N)C(=O)N[C@@H](CCC(N)=O)C(=O)N[C@@H](CCCCN)C(=O)N[C@@H](CCCCN)C(=O)N[C@@H](CCC(N)=O)C(=O)N[C@@H](CCCNC(=N)N)C(=O)N[C@@H](CCC(=O)O)C(=O)N[C@@H](CCCCN)C(=O)N[C@@H](C)C(=O)N[C@@H](CCCCN)C(=O)N[C@H](C(=O)N[C@@H](CC(N)=O)C(=O)NC(C)(C)C(=O)N[C@@H](CCC(N)=O)C(=O)N[C@H](C(=O)N[C@@H](CC(C)C)C(=O)N[C@@H](C)C(=O)N[C@@H](CCC(N)=O)C(=O)N[C@H](C(N)=O)C(C)C)[C@@H](C)CC)[C@@H](C)O)[C@@H](C)CC)[C@@H](C)CC)C(C)C)C(C)C
B3 showed an EC50 [nM], 0% HSA of 0.68 nM and an EC50 [nM], 0.1% HSA of 25.7 nM.

B4: SEQ ID NO: 89 (peptide)
peptide: IVLSLDVPIKLK([AEEA-AEEA-γGlu-C18 diacid])QILLKQERQKKQREQAKTN[Aib]QILAQV-NH2
modifications: N-terminus assumed
SMILES: CC[C@H](C)[C@H](N)C(=O)N[C@H](C(=O)N[C@@H](CC(C)C)C(=O)N[C@@H](CO)C(=O)N[C@@H](CC(C)C)C(=O)N[C@@H](CC(=O)O)C(=O)N[C@H](C(=O)N1CCC[C@H]1C(=O)N[C@H](C(=O)N[C@@H](CCCCN)C(=O)N[C@@H](CC(C)C)C(=O)N[C@@H](CCCCNC(=O)COCCOCCNC(=O)COCCOCCNC(=O)CC[C@H](NC(=O)CCCCCCCCCCCCCCCCC(=O)O)C(=O)O)C(=O)N[C@@H](CCC(N)=O)C(=O)N[C@H](C(=O)N[C@@H](CC(C)C)C(=O)N[C@@H](CC(C)C)C(=O)N[C@@H](CCCCN)C(=O)N[C@@H](CCC(N)=O)C(=O)N[C@@H](CCC(=O)O)C(=O)N[C@@H](CCCNC(=N)N)C(=O)N[C@@H](CCC(N)=O)C(=O)N[C@@H](CCCCN)C(=O)N[C@@H](CCCCN)C(=O)N[C@@H](CCC(N)=O)C(=O)N[C@@H](CCCNC(=N)N)C(=O)N[C@@H](CCC(=O)O)C(=O)N[C@@H](CCC(N)=O)C(=O)N[C@@H](C)C(=O)N[C@@H](CCCCN)C(=O)N[C@H](C(=O)N[C@@H](CC(N)=O)C(=O)NC(C)(C)C(=O)N[C@@H](CCC(N)=O)C(=O)N[C@H](C(=O)N[C@@H](CC(C)C)C(=O)N[C@@H](C)C(=O)N[C@@H](CCC(N)=O)C(=O)N[C@H](C(N)=O)C(C)C)[C@@H](C)CC)[C@@H](C)O)[C@@H](C)CC)[C@@H](C)CC)C(C)C)C(C)C
The molecule B4 returned an EC50 [nM], 0% HSA of 0.3 nM and an EC50 [nM], 0.1% HSA of 15.6 nM.

B5: SEQ ID NO: 93 (peptide)
peptide: IVLSLDVPIKLK([AEEA-AEEA-γGlu-C18 diacid])QKLLKQERQKKQREKAKTNVQILAQV-NH2
modifications: N-terminus assumed
SMILES: CC[C@H](C)[C@H](N)C(=O)N[C@H](C(=O)N[C@@H](CC(C)C)C(=O)N[C@@H](CO)C(=O)N[C@@H](CC(C)C)C(=O)N[C@@H](CC(=O)O)C(=O)N[C@H](C(=O)N1CCC[C@H]1C(=O)N[C@H](C(=O)N[C@@H](CCCCN)C(=O)N[C@@H](CC(C)C)C(=O)N[C@@H](CCCCNC(=O)COCCOCCNC(=O)COCCOCCNC(=O)CC[C@H](NC(=O)CCCCCCCCCCCCCCCCC(=O)O)C(=O)O)C(=O)N[C@@H](CCC(N)=O)C(=O)N[C@@H](CCCCN)C(=O)N[C@@H](CC(C)C)C(=O)N[C@@H](CC(C)C)C(=O)N[C@@H](CCCCN)C(=O)N[C@@H](CCC(N)=O)C(=O)N[C@@H](CCC(=O)O)C(=O)N[C@@H](CCCNC(=N)N)C(=O)N[C@@H](CCC(N)=O)C(=O)N[C@@H](CCCCN)C(=O)N[C@@H](CCCCN)C(=O)N[C@@H](CCC(N)=O)C(=O)N[C@@H](CCCNC(=N)N)C(=O)N[C@@H](CCC(=O)O)C(=O)N[C@@H](CCCCN)C(=O)N[C@@H](C)C(=O)N[C@@H](CCCCN)C(=O)N[C@H](C(=O)N[C@@H](CC(N)=O)C(=O)N[C@H](C(=O)N[C@@H](CCC(N)=O)C(=O)N[C@H](C(=O)N[C@@H](CC(C)C)C(=O)N[C@@H](C)C(=O)N[C@@H](CCC(N)=O)C(=O)N[C@H](C(N)=O)C(C)C)[C@@H](C)CC)C(C)C)[C@@H](C)O)[C@@H](C)CC)C(C)C)C(C)C
In turn, B5 registered an EC50 [nM], 0% HSA of 50.9 nM.

B6: SEQ ID NO: 91 (peptide)
peptide: IVLSLDVPIKLK([AEEA-AEEA-γGlu-C18 diacid])QKLLKQERQKKQREKAKTN[Aib]QILAQV-NH2
modifications: N-terminus assumed
SMILES: CC[C@H](C)[C@H](N)C(=O)N[C@H](C(=O)N[C@@H](CC(C)C)C(=O)N[C@@H](CO)C(=O)N[C@@H](CC(C)C)C(=O)N[C@@H](CC(=O)O)C(=O)N[C@H](C(=O)N1CCC[C@H]1C(=O)N[C@H](C(=O)N[C@@H](CCCCN)C(=O)N[C@@H](CC(C)C)C(=O)N[C@@H](CCCCNC(=O)COCCOCCNC(=O)COCCOCCNC(=O)CC[C@H](NC(=O)CCCCCCCCCCCCCCCCC(=O)O)C(=O)O)C(=O)N[C@@H](CCC(N)=O)C(=O)N[C@@H](CCCCN)C(=O)N[C@@H](CC(C)C)C(=O)N[C@@H](CC(C)C)C(=O)N[C@@H](CCCCN)C(=O)N[C@@H](CCC(N)=O)C(=O)N[C@@H](CCC(=O)O)C(=O)N[C@@H](CCCNC(=N)N)C(=O)N[C@@H](CCC(N)=O)C(=O)N[C@@H](CCCCN)C(=O)N[C@@H](CCCCN)C(=O)N[C@@H](CCC(N)=O)C(=O)N[C@@H](CCCNC(=N)N)C(=O)N[C@@H](CCC(=O)O)C(=O)N[C@@H](CCCCN)C(=O)N[C@@H](C)C(=O)N[C@@H](CCCCN)C(=O)N[C@H](C(=O)N[C@@H](CC(N)=O)C(=O)NC(C)(C)C(=O)N[C@@H](CCC(N)=O)C(=O)N[C@H](C(=O)N[C@@H](CC(C)C)C(=O)N[C@@H](C)C(=O)N[C@@H](CCC(N)=O)C(=O)N[C@H](C(N)=O)C(C)C)[C@@H](C)CC)[C@@H](C)O)[C@@H](C)CC)C(C)C)C(C)C
Consider B6, for which the EC50 [nM], 0% HSA was 14.3 nM.
